*1 amine or outer side, *2 acyl side, *3 side chain or, on linkers, in order; H or OH if unused. Where no end group is shown, it is not given here. Side-chain parts run from the residue outwards. [ ]: non-standard residue; d: D form. The star is where a group is joined. C16 diacid = O=C(O)CCCCCCCCCCCCCCC(=O)*; γGlu = O=C(O)[C@H](CCC(=O)[*:2])N[*:1]; αMeL = CC(C)C[C@](C)(N)C(=O)O; AEEA = NCCOCCOCC(=O)O; Aib = CC(C)(N)C(=O)O
T1: CRF1R receptor (UniProt P34998 24-415, limits assumed)
T1 sequence (looked up): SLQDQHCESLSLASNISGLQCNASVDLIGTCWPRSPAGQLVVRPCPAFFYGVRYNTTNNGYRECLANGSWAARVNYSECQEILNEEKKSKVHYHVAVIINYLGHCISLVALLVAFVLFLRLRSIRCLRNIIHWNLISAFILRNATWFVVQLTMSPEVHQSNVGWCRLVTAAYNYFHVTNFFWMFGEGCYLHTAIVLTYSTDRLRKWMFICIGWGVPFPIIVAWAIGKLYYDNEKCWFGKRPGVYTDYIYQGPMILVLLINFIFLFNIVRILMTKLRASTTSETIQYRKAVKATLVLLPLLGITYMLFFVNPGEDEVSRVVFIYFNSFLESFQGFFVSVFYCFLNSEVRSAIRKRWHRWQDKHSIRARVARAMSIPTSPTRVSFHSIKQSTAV

B1: SEQ ID NO 50 (peptide)
peptide: Ac-IVLSLD[dV]PIK[αMeL]K([γGlu-C16 diacid])KILLEQEKQKKQREQAETNVQILAQV-NH2
SMILES: CC[C@H](C)[C@H](NC(C)=O)C(=O)N[C@H](C(=O)N[C@@H](CC(C)C)C(=O)N[C@@H](CO)C(=O)N[C@@H](CC(C)C)C(=O)N[C@@H](CC(=O)O)C(=O)N[C@@H](C(=O)N1CCC[C@H]1C(=O)N[C@H](C(=O)N[C@@H](CCCCN)C(=O)N[C@@](C)(CC(C)C)C(=O)N[C@@H](CCCCNC(=O)CC[C@H](NC(=O)CCCCCCCCCCCCCCC(=O)O)C(=O)O)C(=O)N[C@@H](CCCCN)C(=O)N[C@H](C(=O)N[C@@H](CC(C)C)C(=O)N[C@@H](CC(C)C)C(=O)N[C@@H](CCC(=O)O)C(=O)N[C@@H](CCC(N)=O)C(=O)N[C@@H](CCC(=O)O)C(=O)N[C@@H](CCCCN)C(=O)N[C@@H](CCC(N)=O)C(=O)N[C@@H](CCCCN)C(=O)N[C@@H](CCCCN)C(=O)N[C@@H](CCC(N)=O)C(=O)N[C@@H](CCCNC(=N)N)C(=O)N[C@@H](CCC(=O)O)C(=O)N[C@@H](CCC(N)=O)C(=O)N[C@@H](C)C(=O)N[C@@H](CCC(=O)O)C(=O)N[C@H](C(=O)N[C@@H](CC(N)=O)C(=O)N[C@H](C(=O)N[C@@H](CCC(N)=O)C(=O)N[C@H](C(=O)N[C@@H](CC(C)C)C(=O)N[C@@H](C)C(=O)N[C@@H](CCC(N)=O)C(=O)N[C@H](C(N)=O)C(C)C)[C@@H](C)CC)C(C)C)[C@@H](C)O)[C@@H](C)CC)[C@@H](C)CC)C(C)C)C(C)C
B2: SEQ ID NO 44 (peptide)
peptide: Ac-IVLSLD[dV]PIK[αMeL]K([γGlu-C16 diacid])KILLEQEKQKKQREQAETN[Aib]QILAQV-NH2
SMILES: CC[C@H](C)[C@H](NC(C)=O)C(=O)N[C@H](C(=O)N[C@@H](CC(C)C)C(=O)N[C@@H](CO)C(=O)N[C@@H](CC(C)C)C(=O)N[C@@H](CC(=O)O)C(=O)N[C@@H](C(=O)N1CCC[C@H]1C(=O)N[C@H](C(=O)N[C@@H](CCCCN)C(=O)N[C@@](C)(CC(C)C)C(=O)N[C@@H](CCCCNC(=O)CC[C@H](NC(=O)CCCCCCCCCCCCCCC(=O)O)C(=O)O)C(=O)N[C@@H](CCCCN)C(=O)N[C@H](C(=O)N[C@@H](CC(C)C)C(=O)N[C@@H](CC(C)C)C(=O)N[C@@H](CCC(=O)O)C(=O)N[C@@H](CCC(N)=O)C(=O)N[C@@H](CCC(=O)O)C(=O)N[C@@H](CCCCN)C(=O)N[C@@H](CCC(N)=O)C(=O)N[C@@H](CCCCN)C(=O)N[C@@H](CCCCN)C(=O)N[C@@H](CCC(N)=O)C(=O)N[C@@H](CCCNC(=N)N)C(=O)N[C@@H](CCC(=O)O)C(=O)N[C@@H](CCC(N)=O)C(=O)N[C@@H](C)C(=O)N[C@@H](CCC(=O)O)C(=O)N[C@H](C(=O)N[C@@H](CC(N)=O)C(=O)NC(C)(C)C(=O)N[C@@H](CCC(N)=O)C(=O)N[C@H](C(=O)N[C@@H](CC(C)C)C(=O)N[C@@H](C)C(=O)N[C@@H](CCC(N)=O)C(=O)N[C@H](C(N)=O)C(C)C)[C@@H](C)CC)[C@@H](C)O)[C@@H](C)CC)[C@@H](C)CC)C(C)C)C(C)C

How the values were obtained:
CRF1R receptor = biological target: T1, CRF1R receptor; experiment: cell-based or functional assay
[1] = biological target: human corticotropin-releasing factor 2a (CRF2a receptor) (human), Q13324; experiment: cell-based or functional assay
human corticotropin-releasing factor 2a (CRF2a receptor) (human), Q13324, sequence (Q13324 20-411): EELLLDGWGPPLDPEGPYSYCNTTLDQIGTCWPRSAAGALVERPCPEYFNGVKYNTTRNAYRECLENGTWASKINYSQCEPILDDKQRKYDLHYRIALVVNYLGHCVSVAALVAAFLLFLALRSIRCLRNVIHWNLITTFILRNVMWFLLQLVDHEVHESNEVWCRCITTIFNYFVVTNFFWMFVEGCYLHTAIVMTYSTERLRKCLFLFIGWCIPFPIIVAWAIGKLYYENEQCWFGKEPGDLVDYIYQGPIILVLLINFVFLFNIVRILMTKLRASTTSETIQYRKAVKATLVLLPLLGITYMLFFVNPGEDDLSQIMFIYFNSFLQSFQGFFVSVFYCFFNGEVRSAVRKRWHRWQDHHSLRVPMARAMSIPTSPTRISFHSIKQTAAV

Row | Binder | EC50 (CRF1R receptor) [nM] | Emax (% I) (CRF1R receptor) [%] | EC50 [nM] (cAMP) [1]
1 | IVLSLD[dV]PIKLK([AEEA-AEEA-γGlu-C16 diacid])QILLKQERQKKQREQAEKNKQILEQV-NH2 [SEQ ID NO 148] | 100 | 13 | 0.65
2 | B1 | – | 9 | 0.26
3 | B2 | – | 5 | 0.25

— patent US20260001928A1 (CORTERIA PHARMACEUTICALS, priority 2022, published 2026)
